Laboratory results reported in publication PMC4556779 (Redox Biology, 2015).

Molecular target: the molecule itself
Assay: SEC

B1: sulfinylated Myc-Tsa1 (CP-SO2H), from H2O2-exposed cells (enzyme, S. cerevisiae, UniProt P34760 1-196, looked up)
chain: MVAQVQKQAPTFKKTAVVDGVFDEVSLDKYKGKYVVLAFIPLAFTFVCPTEIIAFSEAAKKFEEQGAQVLFASTDSEYSLLAWTNIPRKEGGLGPINIPLLADTNHSLSRDYGVLIEEEGVALRGLFIIDPKGVIRHITINDLPVGRNVDEALRLVEAFQWTDKNGTVLPCNWTPGAATIKPTVEDSKEYFEAANK
modifications: sulfinic acid (CP-SO2H) at the peroxidatic Cys (CP, C48)
stoichiometry N: ~20
